Assay results taken from the RNAGym collection of RNA variant scans (doi:10.1073/pnas.2313332121).

B1: TPR t1 (parent)
chain: GACCAAUCUGCCCUCAGAGCUCGAGAACAUCUUCGGAUGCAGAGGAGGCAGGCUUCGGUGGCGCGAUAGCGCCAACGUCCUCAACCUCCAAUGCAUCCCACCACAUGAUGAUGCCUGAAGAGCCUUGGUUUUUUG

Variants of: B1
Test: polymerase ribozyme fitness, log enrichment relative to wild type (log ratio); higher = more active; in vitro selection for triplet polymerase activity
Procedure, shortened: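 For each subunit of a heterodimeric triplet polymerase ribozyme, a mutant library was built by PCR and transcribed, then taken through a single in vitro selection round in triplicate. Selection involved annealing to a biotinylated primer, the partner subunit and triplets, incubation frozen at −7 °C, gel excision of extended constructs, capture on streptavidin beads and RT-PCR. Genotypes were retained after Illumina sequencing of inputs and outputs only with ≥10 input reads and ≥1 read in each output. Fitness is defined as the logarithm of a genotype's enrichment relative to wild-type enrichment, using inverse-variance-weighted averages across replicates, with the logarithm taken to base 2.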

Variant	polymerase ribozyme fitness (log ratio)
G52U C72U U78C	-0.804
G52U G63U A119G G120U A121U	-0.023
G52A C94A	-1.72
G52A U133A	-0.415
G51A G60A C80A A95G A111G	-4.57
G51C G60A U112G G117C	-7.03
G52U G110A	-1.73
C53A C82G A118G	-0.931
G52A G122A	-0.494
G52C C64U C123U	-0.169
C53A C73A U116A	-3.87
G52A C70A U92A G93C A105U U112A C115A U130C	-6.48
G51C C53G C94G	-5.44
C53A A111C	0.297
G51U G58C C86A C104U	-3.76
G51U A74C A121C	-0.422
G51U G71A	-5.06
G52C C72U C73G	-1.01
G52A C79U	-0.581
G52A C79A	-0.667
G52A C123A	-0.148
G51A G71A G93A U129C	-5.9
G52C C115A	-1.03
G51C G61A C94U C97U	-3.52

Variant	polymerase ribozyme fitness (log ratio)
G51A C124A	-1.48
G51U A74G	-2.72
G52A G57A U129A	-2.51
G52U U96A	-2.01
G52C G122A	-1.3
G52A G63U U129A	-3.94
G51C U112C	-1.34
G52U G117U	-3.39
G52U G117C	-5.35
G51C U78C A121C G122U C124A	-4.73
G52U A84C G93C	-2.23
C53A C62U C97U G120C	0.732
G52U C56U U116A	-4.17
G51U A68C A91C G110C	-7.47
G52U A103U	-6.74
G51U G61U	-3.14
G51C C56U C115U U131A	-4.93
G52C C56A C72G U132C	-3.89
G51C G127U	-5.2
C53A C80U U106A	-5.29
G51U C73G	-3.52
G51C G60A	-3.46
G51A U78A C88G A121U	-1.45
G51C G61U	-5.29

Variant	polymerase ribozyme fitness (log ratio)
G51U C72A	-2.55
G51A C72G	-2.71
G51A G60C U92C U130A	-6.22
C53A C72U U87A G107U	-4.92
G52C C56A G57A C89U A91C C94U	-3.35
G51U G61C U133G	-2.81
G51U G60U C79G	-1.64
G51A G71U G77U	-3.39
G52A C70U C102U	-2.87
C53A C72G U92C U126A U132A	-4.63
G52A G69C	-1.72
G52A G69A	-3.61
G52U A121G	1.06
G52A C104U G110C	-2.99
G52A G77U G117U	-4.34
G51U U54A C123G U129A	-2.43
G52U G61U A118G U129A	-1.85
G52U G61C	0.0885
G51C C82A	-4.42
G51A G52A U54C	-4.49
G52C C56G G71U C124U	-3.19
G52C G60A U81A A83U	-5.15
G51U C124G	-1.68
G51U C124U	-2.88

Variant	polymerase ribozyme fitness (log ratio)
G51U C88A U106A U112C	-3.27
G51A G61A U125A	-2.21
C53A C56A G69U G127U	-1.27
G52U C124A	0.485
G52A G61A G127U	-1.95
G51A G77C U116C A118C	-5.43
G52A C62A U87A	-3.07
G52A C102U G120A	-1.56
G51U G60U C79G C85A C114U G120U G127U	-4.96
G51C G135U	-4.93
G51U C62U	-3.78
G52U C72A C85A U106A G110U	-3.08
G52U U106C	-1.2
C53A C70A	-1.81
G51A G93U C104U	-3.96
C53A C79A C104A U106A U132C	-3.18
G52C C56A	-0.559
G52C C56U	-0.823
G52A C64G C88G G120U	-6.36
G52C C70A G117U G120U	-4.71
G52U G63C U92A	-4.96
G52C U78C G117U	-2.77
G51C G113C	-5.71
C53A C56G U81G C101G U129C	-2.89

Variant	polymerase ribozyme fitness (log ratio)
G52C G93C	-1.82
G52U C72G A121G	1.49
G51A C99U C124A	-5.8
G51U U112A	-3.68
G51A G52A U112A U116C G128A	-6.33
G52U G120U	-0.714
C53A C79A G117U	-4.98
G52C G69C G117C	-6.05
G51A C86U C94G G120C	-6.29
G51A C73G	-0.931
G52U A105C	-3.57
G51U U112A U133C	-3.27
G52C U81A U130A	-2.3
G52U G71U	-0.703
G52U U55G C82A C89G	-3.64
G52A G57C C72U U116A U129C	-4.37
G52A U92G	-2.95
G51C G61A G120A U132A	-2.03
G52A C104U G113C	-2.55
C53A C56G G63C U106C	-0.653
G52A C89G U129G	-2.09
G52A G120C	0.847
G51U C53U U112A A119G	-2.63
G52U U59C C85U C124U	-1.1

Variant	polymerase ribozyme fitness (log ratio)
G52U A83U G127A	-3.16
G52C C94A	-0.653
G52A C88G	-0.655
G51A G57U U81C C101U	-2.52
G51U C56G	-5.36
G51U C56U	-2.11
G52A A74G C79G U96G	-0.912
G52A U54A G69U G77U C80G A83C A119U	-3.11
G52U C72A C104U A111G G113A	-2.25
G52U C82U G110U	-2.9
G52A G61A C79G	-0.673
G52U C56A C102A	-2.74
G52A C53G U59A A119U	-4.71
G52A G57A G113A	-0.88
G51A C123A	-1.89
G51A C123G	-0.157
G52U C104A	-2.28
G52C C56A C102U U133A	-2.78
G51A C115G	-4.23
G51U	-3.23
G51C	-3.7
G52A G71C A95C G113C	-6.98
G51U C123U	-2.12
G51A U87C U131A	-2.41

Variant	polymerase ribozyme fitness (log ratio)
G52U C73U	-0.9
G52C U131A	-0.555
G51A U130A	-3.19
G52C U55C	-0.101
G51C G69U	-2.95
G52A C56U C72U G113C U125A	-2.88
G52A G71C G93C	-5.59
G52C C123G U133G	0.949
C53A C72U C85U G122A	-0.784
G52A C73G C85A	-1.93
G51U G60U C73G	-2.23
G52A G61A	-0.531
G52A A74U C80U	-1.78
G51C A91C U112A U131C	-6.14
G52U G58C C79U	-0.312
G52C U54G U87C A100U	-1.94
G52A G93U G120A	-0.0896
G51C C80G	-1.85
G52C C101A	-2.34
G51C G60C A75U	-2.9
G52U C79G A83G A121G U132A	0.919
G52U G63A	-1.95
G52U G63C	-0.581
